Changes are numbered by the printed parent chain. Blank lines part the entries; values can stand above or below the binder they belong to.
Legend:
[1] = target: T1, CD22 protein expressed on the surface of Daudi cells (human, UniProt P20273 20-847); assay: confocal immunofluorescence, FITC-labelled antibody on Daudi cells
T1 construct: whole, on cells; also called human CD22; cell surface CD22
T1 sequence (looked up): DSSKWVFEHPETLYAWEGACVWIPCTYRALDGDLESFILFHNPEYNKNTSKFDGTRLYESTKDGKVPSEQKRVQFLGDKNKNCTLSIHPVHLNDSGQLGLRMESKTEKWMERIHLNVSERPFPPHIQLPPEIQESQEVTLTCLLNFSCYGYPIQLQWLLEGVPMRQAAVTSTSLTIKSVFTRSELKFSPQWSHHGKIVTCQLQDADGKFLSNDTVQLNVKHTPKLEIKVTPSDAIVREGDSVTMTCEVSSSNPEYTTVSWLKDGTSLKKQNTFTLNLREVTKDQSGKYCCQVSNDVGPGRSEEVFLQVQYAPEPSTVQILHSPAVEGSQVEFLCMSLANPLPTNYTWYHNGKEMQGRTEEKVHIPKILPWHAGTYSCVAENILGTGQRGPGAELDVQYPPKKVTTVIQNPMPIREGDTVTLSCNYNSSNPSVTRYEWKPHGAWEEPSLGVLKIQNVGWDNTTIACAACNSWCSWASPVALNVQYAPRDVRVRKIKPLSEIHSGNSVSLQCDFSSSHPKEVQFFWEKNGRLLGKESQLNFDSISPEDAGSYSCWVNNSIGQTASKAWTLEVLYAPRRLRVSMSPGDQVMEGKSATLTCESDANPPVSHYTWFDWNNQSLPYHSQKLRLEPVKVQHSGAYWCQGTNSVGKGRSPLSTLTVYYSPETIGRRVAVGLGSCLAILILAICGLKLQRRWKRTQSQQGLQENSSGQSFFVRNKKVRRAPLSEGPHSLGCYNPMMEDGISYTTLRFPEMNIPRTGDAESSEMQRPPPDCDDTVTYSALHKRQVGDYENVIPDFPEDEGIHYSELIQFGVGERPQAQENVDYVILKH
Experimental: (§1) Selected antiCD22 selected anti-CD22 Mab clones VM1000, VM1001, VM1002, VM1003, VM1004, VM1005, VM1006, VM1007, VM1008, VM1009, VM1010, VM1011, VM1012, VM1013, VM1014, and VM1015 of the invention were directly conjugated to F1TC using the Zenon labeling complex (Molecular Probes) using the manufacturer's recommended procedures. Approximately 1×10e7 Daudi cells were resuspended in PBS containing 5 ug/ml labeled anti-CD22 antibody and incubated for 45 minutes on ice. Cells then washed twice in PBS-FBS solution at 0 C. Cells were then incubated in RPMI 1640 media containing 10% FBS for varying periods at 37 C, harvested and washed in PBS at 0 C. The cells were then briefly fixed in 4% paraformaldehyde solution for 5 min at room temperature, then washed in PBS containing 0.05% Triton X-100. Cell pellets were collected by centrifugation and resupended in a minimal volume of FBS neat, and then applied to glass microscope slides. Prior to analysis, slides were treated with mounting fluid containing the nuclear stain DAPI, then coverslips were applied. Confocal images were recorded using an ACAS Ultima confocal microscope (Meridian Instruments, Inc., Okemos, Mich.) and represent 1-μm sections through the center of a focal plane using a 100× oil immersion objective.
(§2) The Anti-CD22 monoclonal antibodies selected clones VM1000, VM1001, VM1002, VM1003, VM1004, VM1005, VM1006, VM1007, VM1008, VM1009, VM1010, VM1011, VM1012, VM1013, VM1014, and VM1015 of the invention were analysed for their ability to be rapidly internalized into the intracellular compartment as judged by immunoflourescent signal on the cell surface versus the intracellular endo cytotic compartment. The antibodies of the invention were compared to BA006H, and humanized version of the murine monoclonal antibody LL2. In this example, FIG. 21A, the anti-CD22 antibodies of the invention bind to CD22 protein expressed on the surface of Daudi cells by approximately 20-fold compared to BA006H as judged by relative mean fluorescence (RMF), and are virtually completely internalized within the cell with 90 minutes, localizing predominantly to within the perinuclear golgi apparatus and associated lysozomes. Shown in FIG. 21B is a chart of the RMF surface binding values obtained in this manner for individual anti-CD22 antibodies of the invention.

[2] = target: T1, CD22 protein expressed on the surface …; assay: Quantitative confocal immunofluorescence of directly FITC-labelled antibody (5 ug/ml, 45 min on ice) on Daudi cells. paragraph 243 calls these 'RMF surface binding values'.
Experimental: as §1, §2

[3] = target: T2, recombinant CD22 extracellular domain; assay: The sheet does not state the method. The column 'KD (nM)' stands beside the confocal data. The values largely repeat FIGURE 18 (SPR on recombinant CD22 extracellular domain), so the target form is taken from there.
T2 construct: Kept apart from m18, which is cell-surface CD22; also called CD22 (analyte in the BIAcore runs); CD22 ECD
Experimental: BIAcore 3000, GE Healthcare was used to determine binding curves and kinetic parameters. An anti-human Fc (1.8 mg/ml) was diluted to a concentration of 50 ug/ml in NaOAc buffer (10 mM, pH 4.8) and coupled to the carboxymethylated dextran matrix of a CM-5 sensor chip using the manufacturer's amine-coupling chemistry as described in the BIAcore systems manual. Using the surface preparation wizard aiming for 10000RU, the carboxyl groups on the sensor surfaces were first activated with NHS/EDC followed by the addition of the anti-human Fc. The remaining activated groups were blocked by the injection of 1M ethanolamine. Each of the flow cells was coupled individually. Employing these conditions, the four flow cell surfaces containing 7554-9571 RU of anti-human Fc were prepared. In preliminary experiments, it was determine that three injections (15 ul at 30 ul/min) 100 mM H₃PO₄/0.05% CHAPS would efficiently remove the bound immunoglobulin and preserve the binding capacity of the immobilized anti-human Fc.
Experiments were performed on the BIAcore 3000 at 25° C. and a flow rate of 30 ul/min. The antibody candidate was dissolved in HBS (10 mM HEPES with 0.15M NaCl, 3.4 mM EDTA, and 0.05% surfactant P20 at pH 7.4) at 5 ug/ml. The analyte, CD22, was dissolved in HBS at 0.25, 0.125, 0.062, 0.031 and 0.015 ug/ml. 3*30 ul of 5 ug/ml of antibody BA001 was flowed over its respective flow cell followed by injections of 240 ul of each CD22 concentration at 30 ul/min (association phase) and an uninterrupted 1200 seconds of buffer flow (dissociation phase). The surface of the chip was regenerated by three sequential injections of 15 ul each with 100 m M H₃PO₄/0.05% CHAPS. The injections of HBS serve as a reference (blank sensogram) for the subtraction of bulk refractive indices for analysis. Using the 1:1 model in BIAevaluation 4.1, both a local fit and global fit was done for both dissociation (kd, [s−1] and association (ka, [M⁻¹s⁻¹]) and the dissociation constant (KD, [M]) calculated (kd/ka).

fold surface binding by relative mean fluorescence (RMF) compared to BA006H [1]: ~20 fold | RMF (Daudi Internalization by Confocal) [2]: ~100 RMF | Kd [3]: 0.5 nM
B1: VM1000 (antibody, V domains shown)
VH: QVQLVQSGAEVKKPGASVKVSCKASGYVFTSYWLHWIRQSPSRGLEWLGYINPRNDYTEYNRIFKGRLTISKDTSKNQVVLTMTNMDPVDTATYYCARRGITTFYWGQG
VL: EIVLTQSPATLSLSPGERATLSCKSSQSVLYSAVEKNYLAWYQQKPGKAPKLLIYWASTRERGVPSRFSGSGSGTDFTFTISSLQPEDIATYYCKQYLSSWTFGQG
notes: Humanized antibody with human constant region; also called anti-CD22 Mab clone VM1000

fold surface binding by relative mean fluorescence (RMF) compared to BA006H [1]: ~20 fold | RMF (Daudi Internalization by Confocal) [2]: ~150 RMF | Kd [3]: 0.33 nM
B2: VM1002 (antibody, V domains shown)
VH: EVQLVQSGAEVKKPGESLRISCKGSGYVFTSYWLHWVRQAPGQGLEWMGYINPRNDYTEYNRIFKGRVTITADKSTSTAYMELSSLRSEDTAVYYCARRGITTFYWGQG
VL: B1 VL with K48Q, K51R, V64I, S66D, F79L, S83R, Q85E, I89F, T91V
notes: Humanized antibody with human constant region; also called anti-CD22 Mab clone VM1002

fold surface binding by relative mean fluorescence (RMF) compared to BA006H [1]: ~20 fold | RMF (Daudi Internalization by Confocal) [2]: ~200 RMF
B3: VM1011 (antibody, V domains shown)
VH: QVQLQESGPGLVKPSQTLSLTCTVSGYVFTSYWLHWIRQPPGKGLEWIGYINPRNDYTEYNRIFKGRVTITADKSTSTAYMELSSLRSEDTAVYYCARRGITTFYWGQG
VL: B1 VL with K48Q, K51R, V64I, S66D, F79L, S83R, Q85E, I89F, T91V
notes: Humanized antibody with human constant region; also called anti-CD22 Mab clone VM1011

fold surface binding by relative mean fluorescence (RMF) compared to BA006H [1]: ~20 fold | RMF (Daudi Internalization by Confocal) [2]: ~100 RMF | Kd [3]: 0.8 nM
B4: VM1004 (antibody, V domains shown)
VH: EVQLVQSGAEVKKPGATVKISCKVSGYVFTSYWLHWIRQSPSRGLEWLGYINPRNDYTEYNRIFKGRFVFSLDTSVSTAYLQICSLKAEDTAVYYCARRGITTFYWGQG
VL: B1 VL with V64I, S66D, F79L, S83R, Q85E, I89F, T91V
notes: Humanized antibody with human constant region; also called anti-CD22 Mab clone VM1004

fold surface binding by relative mean fluorescence (RMF) compared to BA006H [1]: ~20 fold | RMF (Daudi Internalization by Confocal) [2]: ~100 RMF | Kd [3]: 0.22 nM
B5: VM1001 (antibody, V domains shown)
VH: B1 VH
VL: B1 VL with K48Q, K51R, V64I, S66D, F79L, S83R, Q85E, I89F, T91V
notes: Humanized antibody with human constant region; also called anti-CD22 Mab clone VM1001

fold surface binding by relative mean fluorescence (RMF) compared to BA006H [1]: ~20 fold | RMF (Daudi Internalization by Confocal) [2]: ~150 RMF | Kd [3]: 0.34 nM
B6: VM1003 (antibody, V domains shown)
VH: B4 VH
VL: B1 VL with K48Q, K51R, V64I, S66D, F79L, S83R, Q85E, I89F, T91V
notes: Humanized antibody with human constant region; also called anti-CD22 Mab clone VM1003

fold surface binding by relative mean fluorescence (RMF) compared to BA006H [1]: ~20 fold | RMF (Daudi Internalization by Confocal) [2]: ~200 RMF
B7: VM1006 (antibody, V domains shown)
VH: B4 VH with E1Q, T17S, I20V, V24A
VL: DIQMTQSPSSLSASVGDRVTITCKSSQSVLYSAVEKNYLAWYQQKPGKAPKLLIYWASTRERGIPDRFSGSGSGTDFTLTISRLEPEDFAVYYCKQYLSSWTFGQG
notes: Humanized antibody with human constant region; also called anti-CD22 Mab clone VM1006

fold surface binding by relative mean fluorescence (RMF) compared to BA006H [1]: ~20 fold | RMF (Daudi Internalization by Confocal) [2]: ~200 RMF | Kd [3]: 1 nM
B8: VM1007 (antibody, V domains shown)
VH: B2 VH with E1Q, E16A, L18V, R19K, I20V, G24A, P41R, G44R, M48I
VL: B7 VL with D1A, M4L, I64V, D66S, L79F, R83S, P86A, F89A, V91T
notes: Humanized antibody with human constant region; also called anti-CD22 Mab clone VM1007
